# Measured values reported in the DeepSol protein solubility set.
# Assay: soluble on expression in E. coli; label from the status in PepcDB or PDB records
row,Sequence,soluble on expression in E. coli
1,MCHSGTFHLTAGESVEWVLTWAPSFEPHPPMPDYTRSLESTLSFWASWVEELPHQRLYDAEVRRSMLVLRALTDLQTGGIVAAPTTSLPEDFGGIRNWDYRYVWLRDSALTIEALVEYGFSQAALQWRTWLLRAIAGDPENLRIMYGLGGERHLPERELQHLRGYENSVPVRVGNGAAEQYQADVVGEVMVALETIRRAGCLEDEFSWGMQKAILDFQEANFDRKDQGIWEMRSEPQYFTHGRAMMWAGFDRGIKAIEEFNLDGPIERWRELRAKLREEIMTNGFNEEIQSFTQCYDNTQVDASLLQLAQIGFIGFDDPKMLSTVARIEQELLDAHGFLHRYHTDGSDGLAGDEYPFLICSFWLVEQYASSNRLDEAKEKMNRILAVQSPLGLLAEEYSTHHGRLAGNYPQAFSHIGLISAARAINFEEARNRLEHHHHHH,soluble
2,MCLAIPSVVIDIFEEDGEKYALAEYKGVKQKAKLALIEGVEIGDYVLIHTGYALEKMSEDEAKLSLDAWEELFDVLDEMDGVKKENSE,not soluble
3,MCLIAFDWQPDAAAGPVFTLIANRDEFFRRTSAPLSWWEDVPGVLAGRDLEAGGTWLGVSRDGRFAALTNYRAPFDIRAGAPTRGKLVSDFLGGPPVAPLDYLGALAEHSAVYNGFNLLVGDWKRRELAWFCNRAAEGETAVAPPVAVSAGVHALSNARLDTPWPKIVRKRAELGTLLTDNPTPSLDELIELMRDPRVADDDALPHTGIPIERERALSAAFIETPEYGTRGTTALRVTMKEGVRLTVDIKERCDDDGSHRTVRPGTFERAFTFDIDATQPRLEHHHHHH,soluble
4,MCSAGGIRRPIQIEEFKTAISGMSDMELAQIKTEIENSINHLQRSNARLGKYIAKLEGADDRLEADDSDDLENIDSGDLALYKDSVRENEIVLNNYNERVDALEQETVYRKTGHGKSKHEVEAKDNTNKGPDVDMDNSNVDVVTPNSIFI,soluble
5,MCTALSPKVRSGPGLSDMHQYSQWLASRHEANLLPMKEDLALWLTNLLGKEITAETFMEKLDNGALLCQLAETMQEKFKESMDANKPTKNLPLKKIPCKTSAPSGSFFARDNTANFLSWCRDLGVDETCLFESEGLVLHKQPREVCLCLLELGRIAARYGVEPPGLIKLEKEIEQEETLSAPSPSPSPSSKSSGKKSTGNLLDDAVKRISEDPPCKCPNKFCVERLSQGRYRVGEKILFIRMLHNKHVMVRVGGGWETFAGYLLKHDPCRMLQISRVDGKTSPIQSKSPTLKDMNPDNYLVVSASYKAKKEIKLEHHHHHH,not soluble
6,MCTARTAEEIFVETIAVKTRILNDRVLLEAARAIGDRLIAGYRAGARVFMCGNGGSAADAQHFAAELTGHLIFDRPPLGAEALHANSSHLTAVANDYDYDTVFARALEGSARPGDTLFAISTSGNSMSVLRAAKTARELGVTVVAMTGESGGQLAEFADFLINVPSRDTGRIQESHIVFIHAISEHVEHALFAPRQ,soluble
7,MDAFSGIAGPLGRASELHRYEGNQTVVFCAGGVGLPPVYPIMREHLRLGNHVTLISGFRAKEFLFWTGDDERVGKLKKEFGDQLSLIYTTNDGSYGVKGFVTGPLEEMMKANQEGKGRSIAEVIAIGPPLMMRAVSDLTKPYGVKTVASLNSLEHHHHHH,soluble
8,MDALVEDDICILNHEKAHKRDTVTPVSIYSGDESVASHFALVTAYEDIKKRLKDSEKENSLLKKRIRFLEEKLIARFEEETSSVGREQVNKAYHAYREVCIDRDNLKSKLDKMNKDNSESLKVLNEQLQSKEVELLQLRTEVETQQVMRNLNPPSSNWEVEKLSCDLKIHGLEQELELMRKECSDLKIELQKAKQTDPYQEDNLKSRDLQKLSISSDNMQHAYWELKREMSNLHLVTQVQAELLRKLKTSTAIKKGKSLFTGNH,soluble
9,MDAPKAGYAFEYLIETLNDSSHKKFFDVSKLGTKYDVLPYSIRVLLEAAVRNCDGFLMKKEDVMNILDWKTKQSNVEVPFFPARVLLQDFTGIPAMVDFAAMREAVKTLGGDPEKVHPACPTDLTVDHSLQIDFSKCAIQNAPNPGGGDLQKAGKLSPLKVQPKKLPCRGQTTCRGSCDSGELGRNSGTFSSQIENTPILCPFHLQPVPEPETVLKNQEVEFGRNRERLQFFKWSSRVFKNVAVIPPGTGMAHQINLEYLSRVVFEEKDLLFPDSVVGTDSHITMVNGLGILGWGVGGIETEAVMLGLPVSLTLPEVVGCELTGSSNPFVTSIDVVLGITKHLRQVGVAGKFVEFFGSGVSQLSIVDRTTIANMCPEYGAILSFFPVDNVTLKHLEHTGFSKAKLESMETYLKAVKLFRNDQNSSGEPEYSQVIQINLNSIVPSVSGPKRPQDRVAVTDMKSDFQACLNEKVGFKGFQIAAEKQKDIVSIHYEGSEYKLSHGSVVIAAVISCTNNCNPSVMLAAGLLAKKAVEAGLRVKPYIRTSLSPGSGMVTHYLSSSGVLPYLSKLGFEIVGYGCSTCVGNTAPLSDAVLNAVKQGDLVTCGILSGNKNFEGRLCDCVRANYLASPPLVVAYAIAGTVNIDFQTEPLGTDPTGKNIYLHDIWPSREEVHRVEEEHVILSMFKALKDKIEMGNKRWNSLEAPDSVLFPWDLKSTYIRCPSFFDKLTKEPIALQAIENAHVLLYLGDSVTTDHISPAGSIARNSAAAKYLTNRGLTPREFNSYGARRGNDAVMTRGTFANIKLFNKFIGKPAPKTIHFPSGQTLDVFEAAELYQKEGIPLIILAGKKYGSGNSRDWAAKGPYLLGVKAVLAESYEKIHKDHLIGIGIAPLQFLPGENADSLGLSGRETFSLTFPEELSPGITLNIQTSTGKVFSVIASFEDDVEITLYKHGGLLNFVARKFS,soluble
10,MDARPVHPAFQVFTDALRQRFGEALDAVVLYGSCLHTSDLTEGIADFYVLVSDYRLAYSGRLLAGLNAWLPPNVFYLEVPAAAGVMRAKYAVISTADFERGARQWFHPYIWARFAQPARLLYARDDQTGKRVHTAQASAVLKFISTTLPVLESGPSDLEMIWASGLMLTYAAELRAEREARARHLVRIDPEIYSRLTAAAMPALIPLLSLQADGRYHIGPITPLKRLSARIHWRLRRWQGRVLSVLRLSKATMTFRDCLDYAAWKIERHTGIKVEITPMLRRHPILWGYKVMWQLLRRGVLRLEHHHHHH,soluble
11,MDAVDRGVYFDEDFHVRILDVDKYNASKSLQDNTNVFINNIQNMQGLVDKYVSAIDQQVERLEAEKLKAIGLRNRVAALSEERKRKQKEQERMLAEKQEELERLQMEEQSLIKVKGEQELMIQKLSDSSSGAAYV,not soluble
12,MDAYPEAEAPPQSIVELVPVLIAVTDGGLRVLTVAQGMLLPNGPLSPLRNSLQAGVKLWVAKQTSQPMGYVEQLYTFVDTHRRNEHGMPVLYVSYLGLVREAADSILHPDAKWQDCYGYFPWEDLRTDGGQRDAVVGRLRIWANSADTEEVRQKRLKRIHLCWGVEPENWSEEYVLQRYEMLYESGLIAEAAEPQANFDFALTGQPMRHDHRRVLATALSRLRAKIKYRPVIFELMPPEFTLLQLQNSVEAISGRLLHKQNFRRQIQQQNLIEPSDTGVSGSKGRPAQLCRFRDDVLPDRLISDIGLPLGSR,not soluble
13,MDCNGSGGSSDDDKPLHHDGGVRMKFFRSVGEVFGYSPFRSLAQHARMCGRAVGLLQQQFEALRRGNYEEVEELREEIDELEHHADQIKEEIRGNVTKSLMLPVDRHDLLEFLKVQDDILNNCEHVGHMVTFRKVSAPEDVWDEFLVLLSKLMEIVNNYEEMVERIMQLVETSFSKKEVNRALEYVPIIEQLEHECDLIQIGLHTKLFNLENSNPLDIQLMVTWVVHLGYVANAAARASDRFRIMILGR,soluble
14,MDDIRCAIIIDPDLPPGVIANTAAVLAMSLGKRHPELVGQDLPDARGQPRQGITTVPIPVLKGGADQLRALRAAASETGLTLVELTSATRFTRSYQEYAAALAATPEEMVEYQGLALCGPGKRVRQLTGSLGLLRLEHHHHHH,not soluble
15,MDDLVKSSQKALENQVLRDQVSSYEREIMLQNENMEALRSFRHDMKRHFAEISVLASTGEIEQIKNYVSAMENNLVESRRLVDSGNTALDTVLNYMLQRAVDKKIQLNVKVVVPSDLKLSAYDMNIIFGNLLENAIEAQKDVKNPSIDLEINYLMDSLVVEISNRCLQKVIFKGGLPITTKQSVREHGYGLKNVKKVLDKYISTLDFECSDERFTVKILMKI,not soluble
16,MDDPSITPTEKCRFYLGITLRDDTKARPVPGIMQIPGGRYAVFRHTGSYSSLHKVYRSIYEEWFPKSKYHPQSTFSFEMYMNHPSTTETSELLTEIYIPVIRK,not soluble
17,MDDSLGVSEVVMIPFMKREVLQQICAILDTDNTWETIAPYMPGIELRDVEGCKRYSSYNQSPSELLLRIWSSKGYSTTHLYQLFAKTKLIRLMRMMRSQVHEKYHYLENKVTNSTSRVSKQMVQPPGSQSASRLKKTEIKESSPSPAAAAASQLSRSNTDDTLRVAIEGTLPVTYCELLEATNGFAVSNVIGKGGYGTVYKGELKGTGGIVAVKRLHSGNDTSQNGSRERLRQSLTELRTLARFRHDNILPIYAYSLEGSEPCLVYQFMSNGSLEDRLLCRKGSVPLTWIQRKEISIGAGRGLGFLHSFGKTPIIHGDIKTANILLDKHMEPKIGDFGLCRDGHVEAEAMEKHPLIASHIKGTLAYLAPEFITSKILTTKLDVYSFGIVLLEIASGQRAYSDSRETRGLVEYCQVNKELAAHRKIPVREIFIDRRAPPLVGDEEKSFLDALIEVGLAGANNDRKVRPTMSQIVEYLCKNSIPPVV,not soluble
18,MDEEYDAIVLGTGLKECIISGMLSVSGKKVLHIDRNNYYGGESASLTPLEQLYEKFHGPQAKPQQEMGRGRDWNVDLIPKFLMANGPLVKLLIHTGVTRYLEFKSIEASFVVKGGKIYKVPADEMEALATSLMGMFEKRRFKKFLVWVQQFDENKEDTWQGLDPHNSTMQQVYEKFGLDENTADFTGHALALYRDDEHKNQPYAPAVEKIRLYSDSLARYGKSPYLYPLYGLGELPQGFARLSAIYGGTYMLDKPVDEIVMENGKAIGVKCGDEIVRGKQIYCDPSYAKDRVKKTGQVVRAICLLNHPIPNTNDAQSCQIIIPQKQVGRHYDIYISCCSNTNMVTPKGWYLAMVSTTVETANPEAEVLPGLQLLGAIAEKFIQISDVYEPSDLGSESQIFISQSYDATTHFETTCKDVLNMFERGTTKEFDFTNITHLSLNDQE,not soluble
19,MDEFIIKRAKELQGYIVEKRRDFHMYPELKYEEERTSKIVEEELKKLGYEVVRTAKTGVIGILKGKEDGKTVALRADMDALPIQEENDVPYKSRVPGKMHACGHDAHTAMLLGAAKILAEMKDELQGTVKLIFQPAEEGGLGAKKIVEEGHLDDVDAIFGIHVWAELPSGIIGIKSGPLLASADAFRVLIKGKGGHGAAPHLSIDPIALAVDLVNAYQKIISREVDPLQPAVLSVTSIKAGTTFNVIPESAEILGTIRTFDEEVRDYIVRRMKEITENFANGMRCEGKFELTIEHIPPTINNEKLANFARDVLKVLGEIREPKPTMGAEDFAFYTTKAPGLFIFLGIRNEEKGIIYPHHHPKFNVDEDILWMGAAIHSLLTYHYLSL,soluble
